Measured values taken from the supplement of paper PMC10065799, “High-throughput profiling of sequence recognition by tyrosine kinases and SH2 domains using bacterial peptide display” (eLife, 2023).

Experiments:
EPHB1 = EPHB1 (UniProt P54762); experiment: phosphorylation enrichment, bacterial display (enrichment ratio); higher = better substrate or ligand; peptides without Tyr show the background
FGFR1 = FGFR1 (UniProt P11362); experiment: as above
Fer (mouse) = experiment: as above
Hck = Hck (UniProt P08631); experiment: as above
Chain of Hck (P08631 whole entry, looked up): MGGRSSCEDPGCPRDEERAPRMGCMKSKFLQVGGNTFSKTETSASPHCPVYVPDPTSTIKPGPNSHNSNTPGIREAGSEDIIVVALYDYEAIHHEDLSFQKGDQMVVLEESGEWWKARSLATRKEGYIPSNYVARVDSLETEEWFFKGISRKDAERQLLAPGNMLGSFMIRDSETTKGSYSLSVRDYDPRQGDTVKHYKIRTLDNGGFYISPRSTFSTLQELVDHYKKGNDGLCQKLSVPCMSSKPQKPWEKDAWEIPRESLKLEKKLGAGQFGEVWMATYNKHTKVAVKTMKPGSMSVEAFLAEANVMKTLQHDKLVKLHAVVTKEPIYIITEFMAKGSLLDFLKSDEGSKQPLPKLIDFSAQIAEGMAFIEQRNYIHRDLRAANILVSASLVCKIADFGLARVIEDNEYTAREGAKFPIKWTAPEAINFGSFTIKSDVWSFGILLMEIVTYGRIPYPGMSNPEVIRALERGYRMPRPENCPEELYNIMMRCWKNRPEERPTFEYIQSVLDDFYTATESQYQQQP

Fyn = Fyn (UniProt P06241); experiment: as above
Chain of Fyn (P06241 whole entry, looked up): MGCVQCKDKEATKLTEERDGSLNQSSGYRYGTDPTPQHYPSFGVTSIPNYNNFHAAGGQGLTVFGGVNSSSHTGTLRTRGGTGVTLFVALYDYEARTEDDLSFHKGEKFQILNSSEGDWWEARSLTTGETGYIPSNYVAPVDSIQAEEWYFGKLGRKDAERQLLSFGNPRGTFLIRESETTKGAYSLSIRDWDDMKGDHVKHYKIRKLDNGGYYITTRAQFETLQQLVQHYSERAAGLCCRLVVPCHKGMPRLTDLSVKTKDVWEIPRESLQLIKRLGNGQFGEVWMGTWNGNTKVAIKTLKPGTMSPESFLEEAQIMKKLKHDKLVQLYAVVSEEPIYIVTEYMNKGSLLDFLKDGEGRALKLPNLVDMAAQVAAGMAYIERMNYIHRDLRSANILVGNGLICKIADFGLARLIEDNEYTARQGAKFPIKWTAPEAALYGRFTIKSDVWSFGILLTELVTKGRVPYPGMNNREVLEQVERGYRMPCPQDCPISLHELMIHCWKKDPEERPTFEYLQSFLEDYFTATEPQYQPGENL

c-Src = experiment: as above
Jak2 = Jak2 (UniProt O60674); experiment: as above
Chain of Jak2 (O60674 whole entry, looked up): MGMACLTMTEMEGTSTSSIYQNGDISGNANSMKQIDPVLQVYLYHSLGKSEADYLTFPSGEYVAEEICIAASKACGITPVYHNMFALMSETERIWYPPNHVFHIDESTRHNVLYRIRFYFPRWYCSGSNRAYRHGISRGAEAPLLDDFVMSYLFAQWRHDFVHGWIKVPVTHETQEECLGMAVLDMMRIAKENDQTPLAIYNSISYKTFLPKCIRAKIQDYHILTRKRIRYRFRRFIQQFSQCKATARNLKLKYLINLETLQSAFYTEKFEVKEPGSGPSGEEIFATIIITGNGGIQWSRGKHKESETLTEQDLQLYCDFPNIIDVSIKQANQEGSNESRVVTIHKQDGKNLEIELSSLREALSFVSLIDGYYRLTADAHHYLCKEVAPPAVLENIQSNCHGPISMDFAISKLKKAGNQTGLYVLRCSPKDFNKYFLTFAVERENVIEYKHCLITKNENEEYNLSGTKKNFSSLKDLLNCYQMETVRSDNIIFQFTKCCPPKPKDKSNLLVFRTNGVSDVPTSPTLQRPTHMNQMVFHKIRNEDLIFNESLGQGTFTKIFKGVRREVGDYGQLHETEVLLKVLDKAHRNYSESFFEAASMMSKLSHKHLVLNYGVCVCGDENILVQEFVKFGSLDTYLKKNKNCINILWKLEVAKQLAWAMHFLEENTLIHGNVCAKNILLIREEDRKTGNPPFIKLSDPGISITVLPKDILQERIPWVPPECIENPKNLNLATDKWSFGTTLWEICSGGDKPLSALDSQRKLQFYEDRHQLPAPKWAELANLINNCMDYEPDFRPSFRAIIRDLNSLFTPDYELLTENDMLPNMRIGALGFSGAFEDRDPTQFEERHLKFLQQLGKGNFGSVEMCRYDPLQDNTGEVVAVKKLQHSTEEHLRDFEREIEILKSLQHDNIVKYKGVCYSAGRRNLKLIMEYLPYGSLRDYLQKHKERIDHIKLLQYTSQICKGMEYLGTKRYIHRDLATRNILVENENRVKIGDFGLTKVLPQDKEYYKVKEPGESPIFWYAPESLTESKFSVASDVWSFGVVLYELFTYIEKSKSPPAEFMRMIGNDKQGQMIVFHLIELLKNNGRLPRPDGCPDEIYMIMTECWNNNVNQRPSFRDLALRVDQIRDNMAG

FGFR3 = FGFR3 (UniProt P22607); experiment: as above
Fes = Fes (UniProt P07332); experiment: as above
Chain of Fes (P07332 whole entry, looked up): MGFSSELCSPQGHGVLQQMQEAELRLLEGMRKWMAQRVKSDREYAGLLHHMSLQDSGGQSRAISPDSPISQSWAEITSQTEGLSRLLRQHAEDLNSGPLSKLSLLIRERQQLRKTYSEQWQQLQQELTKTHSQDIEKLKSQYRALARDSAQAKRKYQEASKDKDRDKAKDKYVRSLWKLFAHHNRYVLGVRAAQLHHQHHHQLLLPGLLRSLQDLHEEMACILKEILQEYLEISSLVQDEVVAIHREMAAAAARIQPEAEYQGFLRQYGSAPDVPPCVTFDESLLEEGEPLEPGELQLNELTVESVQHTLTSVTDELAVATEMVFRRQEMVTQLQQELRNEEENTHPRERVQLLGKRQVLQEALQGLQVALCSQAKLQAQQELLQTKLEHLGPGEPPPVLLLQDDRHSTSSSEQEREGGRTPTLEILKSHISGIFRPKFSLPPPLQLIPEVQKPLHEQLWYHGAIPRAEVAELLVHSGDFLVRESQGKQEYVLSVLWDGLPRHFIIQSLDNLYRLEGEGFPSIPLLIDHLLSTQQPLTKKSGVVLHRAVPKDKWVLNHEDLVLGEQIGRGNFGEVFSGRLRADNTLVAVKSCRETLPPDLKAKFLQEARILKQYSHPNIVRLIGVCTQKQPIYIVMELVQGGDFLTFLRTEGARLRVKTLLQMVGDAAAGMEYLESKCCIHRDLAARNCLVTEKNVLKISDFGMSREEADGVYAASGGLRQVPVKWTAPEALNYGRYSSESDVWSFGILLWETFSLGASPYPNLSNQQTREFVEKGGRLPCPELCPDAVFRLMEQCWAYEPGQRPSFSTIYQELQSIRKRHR

AncSZ = experiment: as above
EPHB2 = EPHB2 (UniProt P29323); experiment: as above
MERTK = MERTK (UniProt Q12866); experiment: as above
Chain of MERTK (Q12866 whole entry, looked up): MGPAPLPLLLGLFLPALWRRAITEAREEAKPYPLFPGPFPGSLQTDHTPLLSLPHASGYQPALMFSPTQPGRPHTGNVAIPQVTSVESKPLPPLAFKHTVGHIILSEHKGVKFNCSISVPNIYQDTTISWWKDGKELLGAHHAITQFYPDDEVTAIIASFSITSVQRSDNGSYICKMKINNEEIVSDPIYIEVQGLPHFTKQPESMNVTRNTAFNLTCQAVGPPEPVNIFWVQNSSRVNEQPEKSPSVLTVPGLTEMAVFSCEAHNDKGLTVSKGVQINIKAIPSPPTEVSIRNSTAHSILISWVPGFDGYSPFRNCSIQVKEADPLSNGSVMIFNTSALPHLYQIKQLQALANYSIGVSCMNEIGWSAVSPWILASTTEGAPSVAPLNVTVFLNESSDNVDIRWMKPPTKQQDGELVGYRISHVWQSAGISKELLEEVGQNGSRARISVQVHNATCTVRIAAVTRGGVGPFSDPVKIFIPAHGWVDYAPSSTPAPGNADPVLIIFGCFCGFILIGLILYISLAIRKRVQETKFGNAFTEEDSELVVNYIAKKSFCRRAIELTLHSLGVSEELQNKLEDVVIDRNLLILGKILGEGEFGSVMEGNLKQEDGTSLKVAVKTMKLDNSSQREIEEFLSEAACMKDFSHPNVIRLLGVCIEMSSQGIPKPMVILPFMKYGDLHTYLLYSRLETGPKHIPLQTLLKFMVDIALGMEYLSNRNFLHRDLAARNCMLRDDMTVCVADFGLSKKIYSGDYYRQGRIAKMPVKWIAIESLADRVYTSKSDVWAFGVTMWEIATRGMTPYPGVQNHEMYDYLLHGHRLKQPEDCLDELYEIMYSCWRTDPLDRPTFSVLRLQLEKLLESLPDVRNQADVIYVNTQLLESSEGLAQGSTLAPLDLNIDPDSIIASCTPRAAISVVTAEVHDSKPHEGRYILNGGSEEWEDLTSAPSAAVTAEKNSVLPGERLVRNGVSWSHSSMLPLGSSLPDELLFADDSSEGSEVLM

c-Abl (mouse) = experiment: as above
SHP2-C SH2 = experiment: SH2 binding enrichment of the phosphorylated peptide, bacterial display (enrichment ratio); higher = better substrate or ligand; peptides without Tyr show the background
Grb2 SH2 = Grb2 SH2 (UniProt P62993); experiment: as above
Chain of Grb2 SH2 (P62993 whole entry, looked up): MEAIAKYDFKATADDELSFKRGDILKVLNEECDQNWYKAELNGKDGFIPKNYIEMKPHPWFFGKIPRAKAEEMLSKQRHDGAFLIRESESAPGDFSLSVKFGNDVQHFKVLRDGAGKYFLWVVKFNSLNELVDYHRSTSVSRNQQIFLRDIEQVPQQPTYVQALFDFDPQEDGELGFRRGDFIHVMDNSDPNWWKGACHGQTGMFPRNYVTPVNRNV

c-Src SH2 = experiment: as above
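Wherever SH2 binding enrichment of the phosphorylated peptide, bacterial display is given: peptide library displayed on the E. coli surface as eCPX fusions, selected cells deep-sequenced, score is each peptide's frequency after selection divided by its frequency in the input.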
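Wherever phosphorylation enrichment, bacterial display is given: 11-residue human phosphosite peptides and single-mutation variants displayed on the E. coli surface, counted by deep sequencing, each peptide's frequency after selection divided by its frequency in the unselected input library; frequency after pTyr selection over input frequency; kinase dosed for 20-30% of maximal phosphorylation in three min.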

Chain of FGFR1 (P11362 whole entry, looked up): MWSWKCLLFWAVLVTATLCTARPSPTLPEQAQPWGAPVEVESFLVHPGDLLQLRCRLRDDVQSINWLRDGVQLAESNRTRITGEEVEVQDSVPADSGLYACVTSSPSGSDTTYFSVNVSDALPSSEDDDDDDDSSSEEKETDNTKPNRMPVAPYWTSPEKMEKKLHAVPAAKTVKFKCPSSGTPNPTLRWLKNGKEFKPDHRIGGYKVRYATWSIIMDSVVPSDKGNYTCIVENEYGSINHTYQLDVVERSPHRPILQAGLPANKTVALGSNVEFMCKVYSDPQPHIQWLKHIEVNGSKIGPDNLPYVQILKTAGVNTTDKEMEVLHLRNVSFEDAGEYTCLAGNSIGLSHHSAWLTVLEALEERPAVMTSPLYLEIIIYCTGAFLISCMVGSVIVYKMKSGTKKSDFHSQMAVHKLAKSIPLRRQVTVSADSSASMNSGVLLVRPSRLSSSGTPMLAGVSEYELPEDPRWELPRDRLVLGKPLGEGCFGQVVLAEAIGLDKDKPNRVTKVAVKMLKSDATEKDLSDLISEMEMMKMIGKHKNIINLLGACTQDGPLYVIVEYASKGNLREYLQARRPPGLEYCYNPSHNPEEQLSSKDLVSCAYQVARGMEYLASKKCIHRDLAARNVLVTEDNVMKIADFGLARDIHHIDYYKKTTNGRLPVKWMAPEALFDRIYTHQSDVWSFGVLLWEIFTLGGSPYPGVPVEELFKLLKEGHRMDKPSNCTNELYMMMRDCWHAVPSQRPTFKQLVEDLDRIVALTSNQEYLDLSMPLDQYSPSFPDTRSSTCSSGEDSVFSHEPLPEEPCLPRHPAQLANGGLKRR

| Sequence | phosphorylation enrichment (EPHB1) | phosphorylation enrichment (FGFR1) | phosphorylation enrichment (Fer (mouse)) | phosphorylation enrichment (Hck) | phosphorylation enrichment (Fyn) | phosphorylation enrichment (c-Src) | phosphorylation enrichment (Jak2) | phosphorylation enrichment (FGFR3) | phosphorylation enrichment (Fes) | phosphorylation enrichment (AncSZ) | phosphorylation enrichment (EPHB2) | phosphorylation enrichment (MERTK) | phosphorylation enrichment (c-Abl (mouse)) | SH2 binding enrichment (SHP2-C SH2) | SH2 binding enrichment (Grb2 SH2) | SH2 binding enrichment (c-Src SH2) |
| --- | --- | --- | --- | --- | --- | --- | --- | --- | --- | --- | --- | --- | --- | --- | --- | --- |
| LERYIYNREEY [HLA-DPB1_Y59_F64Y] | 0.568 | 0.726 | 0.519 | 1.72 | 1.77 | 3.15 | 0.998 | 0.903 | 1.25 | 1.08 | 0.982 | 0.719 | 0.752 | 0.642 | 1.08 | 1.8 |
| LFEDHYLLGTS [ASS1_Y87_R86H_YF] | 0.618 | 0.494 | 0.569 | 0.566 | 0.783 | 1.01 | 1.15 | 0.707 | 1.15 | 1.27 | 0.586 | 0.384 | 0.662 | 0.634 | 1.22 | 0.534 |
| LFQAKYQIRYR [CRLF1_Y272] | 0.79 | 0.566 | 0.325 | 0.763 | 0.477 | 0.531 | 0.949 | 0.789 | 1.33 | 1.07 | 0.517 | 0.465 | 0.779 | 1.67 | 1.46 | 1.22 |
| LFSGDYFRIQG [DDR2_Y740_YF] | 6.99 | 23.1 | 0.739 | 1.57 | 1.36 | 3.77 | 23.4 | 15.7 | 2.04 | 4.61 | 4.1 | 2.08 | 1.67 | 0.652 | 1.03 | 0.674 |
| LFSNAYLNDLA [ALDH1A1_Y119_YF] | 0.794 | 0.986 | 0.688 | 1 | 1.12 | 1.15 | 1.11 | 1.25 | 1.58 | 1.14 | 0.723 | 0.807 | 1.14 | 0.627 | 4.23 | 1.29 |
| LGGSPYPSVPV [FGFR1_Y701_G703S] | 0.85 | 0.784 | 0.675 | 0.817 | 0.564 | 0.453 | 0.645 | 0.646 | 1.25 | 1.04 | 0.735 | 0.614 | 0.747 | 0.608 | 0.915 | 0.476 |
| LGQRIYQYIRS [DYRK1B_Y271_Q275R] | 11.1 | 1.54 | 4.1 | 5.58 | 1.65 | 3.09 | 1.98 | 0.959 | 1.56 | 1.42 | 3.2 | 7.5 | 2.38 | 1.51 | 1.14 | 3.25 |
| LHAAAYRNALA [UQCRC2_Y182] | 0.362 | 0.415 | 0.33 | 0.484 | 0.55 | 0.398 | 0.594 | 0.402 | 0.871 | 0.686 | 0.491 | 0.407 | 0.303 | 0.682 | 0.691 | 0.559 |
| LIDGYYRLTED [JAK2_Y373_A377E] | 0.708 | 1.51 | 0.564 | 0.778 | 0.625 | 0.899 | 7.39 | 1.57 | 1.32 | 1.48 | 0.914 | 0.574 | 1.07 | 4.88 | 0.886 | 9 |
| LIHLHYIRRDF [BBS4_Y43_K46R_YF] | 0.669 | 0.521 | 0.564 | 0.581 | 0.503 | 0.448 | 0.972 | 0.732 | 1.02 | 1.1 | 0.707 | 0.419 | 0.333 | 0.817 | 1.28 | 0.854 |
| LISVSYDDWDF [GRIN2A_Y281_YF] | 1.46 | 1.08 | 19.4 | 0.893 | 0.953 | 1.07 | 2.06 | 1.09 | 2.44 | 3.36 | 1 | 1.03 | 1.64 | 0.797 | 1.12 | 1.36 |
| LITTLYSGFLG [KCNQ1_Y267_I268S] | 0.965 | 0.339 | 0.824 | 3.96 | 5.49 | 6.52 | 0.992 | 0.755 | 1.08 | 1.38 | 0.611 | 3.39 | 1.22 | 1.56 | 1.54 | 1.44 |
| LLQKTYNYNVL [SLC4A1_Y553_P548L] | 0.745 | 1.23 | 0.496 | 1.01 | 1.07 | 0.851 | 0.834 | 1.06 | 1.52 | 1.26 | 1.7 | 0.694 | 0.716 | 0.866 | 1.26 | 2.2 |
| LLREWYVQDPF [SIX3_Y225_L226V_YF] | 0.673 | 0.766 | 0.576 | 0.522 | 0.438 | 0.466 | 0.892 | 0.998 | 0.977 | 0.961 | 0.621 | 0.443 | 0.528 | 1 | 1.03 | 1.11 |
| LLTALYFISWG [KCNH2_Y780_R784W] | 1.04 | 0.847 | 0.782 | 2.03 | 1.59 | 2.27 | 1.95 | 1.23 | 1.58 | 1.51 | 0.786 | 3.92 | 1.09 | 0.891 | 1.01 | 0.666 |
| LNAGAYSKVVQ [PPT1_Y172] | 0.703 | 0.41 | 1.02 | 0.357 | 0.529 | 0.84 | 1.28 | 0.686 | 0.974 | 1.12 | 0.557 | 0.627 | 0.994 | 5.07 | 0.623 | 1.71 |
